From PMC5402393, “Interactions of AMTN, ODAM and SCPPPQ1 proteins of a specialized basal lamina that attaches epithelial cells to tooth mineral” (Scientific Reports, 2017)

B1: recombinant human ODAM, purified, His-tag cleaved (natural protein, UniProt A1E959 16-279, looked up)
chain: APLIPQRLMSASNSNELLLNLNNGQLLPLQLQGPLNSWIPPFSGILQQQQQAQIPGLSQFSLSALDQFAGLLPNQIPLTGEASFAQGAQAGQVDPLQLQTPPQTQPGPSHVMPYVFSFKMPQEQGQMFQYYPVYMVLPWEQPQQTVPRSPQQTRQQQYEEQIPFYAQFGYIPQLAEPAISGGQQQLAFDPQLGTAPEIAVMSTGEEIPYLQKEAINFRHDSAGVFMPSTSPKPSTTNVFTSAVDQTITPELPEEKDKTDSLREP
notes: ~32 kDa; also called hODAM; source: E. coli BL21(DE3)-star, purified (Ni-NTA, TEV cleavage, Superose 6 gel filtration); not shown: His6, N-terminal, cleaved

Experiments:
[1] = molecular target: the molecule itself; experiment: SEC; Superose 6 GL 10/300 for ODAM, S200 for AMTN; 50 mM PB pH 7.4; purified recombinant human proteins, His-tag cleaved; self-association
[2] = molecular target: B1; experiment: circular dichroism; far-UV CD (180-250 nm) of purified hODAM, hAMTN and their mixture in 50 mM PB pH 7.2; change of secondary structure on mixing; settings: both partners purified

Row | binding result [2] | Binder | stoichiometry N [1] [subunits]
1 | binds | recombinant human AMTN, purified, His-tag cleaved (natural protein, UniProt Q6UX39 17-209, looked up, ~21 kDa; also called hAMTN; source: E. coli BL21(DE3)-star, purified (Ni-NTA, TEV cleavage, S200 gel filtration); not shown: His6, N-terminal, cleaved) LPQLKPALGLPPTKLAPDQGTLPNQQQSNQVFPSLSLIPLTQMLTLGPDLHLLNPAAGMTPGTQTHPLTLGGLNVQQQLHPHVLPIFVTQLGAQGTILSSEELPQIFTSLIIHSLFPGGILPTSQAGANPDVQDGSLPAGGAGVNPATQGTPAGRLPTPSGTDDDFAVTTPAGIQRSTHAIEEATTESANGIQ | 5
2 | – | B1 | 12 to 13
